Experimental findings from publication PMC5701251 are described below.

In this test the target is gp49d, deletion mutant of the phage LKA1 tailspike protein LKA1gp49 without the N-terminal particle-binding domain (residues 1-167) (Pseudomonas phage LKA1). Nature of the test: crystal structure; gp49d crystallised in 8% PEG 6000, 0.8 M NaCl, 0.1 M Na acetate pH 3.5 at 18 °C, 20 mg/ml; molecular replacement with gp61d; homotrimer.

A word on the stoichiometry N: it is a count of units in the complex or per binding partner.

In turn, “gp49d, deletion mutant of the phage LKA1 tailspike protein LKA1gp49 without the N-terminal particle-binding domain (residues 1-167) (domain or fragment)” had a stoichiometry N of 3.
